Reference: US20050019751A1

Target: human SR-BI with 12 vector-derived amino acids added to the carboxyl terminal (pcDNA3-SR-BI construct of Example 3) (human) (UniProt Q8WTV0)
Assay: FACS dot plot, BHK-21 cells transiently transfected with pcDNA3-SR-BI

Sequence of UniProt Q8WTV0 (Q8WTV0 other isoform, or with tags, fused parts or gaps limits assumed): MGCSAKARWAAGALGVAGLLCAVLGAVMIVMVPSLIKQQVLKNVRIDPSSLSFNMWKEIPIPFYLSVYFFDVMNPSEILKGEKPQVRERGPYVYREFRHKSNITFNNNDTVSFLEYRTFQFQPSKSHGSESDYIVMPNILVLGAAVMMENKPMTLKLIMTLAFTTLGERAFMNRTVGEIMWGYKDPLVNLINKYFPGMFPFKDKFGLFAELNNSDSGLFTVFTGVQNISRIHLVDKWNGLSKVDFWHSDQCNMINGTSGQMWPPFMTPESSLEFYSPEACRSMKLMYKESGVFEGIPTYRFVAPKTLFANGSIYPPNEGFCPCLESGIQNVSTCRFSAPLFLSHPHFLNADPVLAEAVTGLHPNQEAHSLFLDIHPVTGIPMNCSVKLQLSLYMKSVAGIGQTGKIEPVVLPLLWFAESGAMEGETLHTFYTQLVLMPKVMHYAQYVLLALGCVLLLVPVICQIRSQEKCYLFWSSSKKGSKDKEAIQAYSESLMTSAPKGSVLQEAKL

Substance: HCV E2 recombinant protein, genotype 1a (strain H), amino acids 384-661 of the HCV polyprotein with C-terminal 6 His tag (from UniProt P27958 384-661) (ligand)
- percent of transfected cells that bind E2: 10%
